Results from US7541156B1, “Method of identifying antinociceptive compounds using protease activated receptor-2” (priority 2000, dated 2009).
Each block holds one molecule with its values, some of them ahead of it. No end group written: not given here.

Tests used:
[1] = system: pancreatic afferent neurons / spinal segments T8-T10; assay: c-FOS expression in spinal cord segments after pancreatic intraductal injection; type: in vivo, rat; conditions: peptide 100 μM intraductal, followed 30 min later by Capsaicin 0.5 mg/kg; 2.5 hours
Procedure: Intraductal (pancreatic duct) injection. To administer the necessary peptides directly into the rat pancreatic duct we followed a modified protocol, previously described by Kim et al. (1996). In brief, rats were anesthetized i.p. with nembutal sodium (Abbot Laboratories, Chicago, Ill.) (50 mg/kg body weight). The peritoneum was incised to expose the duodenum and the duodenal loop was pulled out. The pancreatic duct entering the duodenum was identified under dissecting microscope and a small niche was made into the duct with a 30-gauge needle. A polyethylene 10 tubing (0.61 mm outer diameter) (Becton Dickinson and Company, Franklin Lakes, N.J.) was guided into the duct and tied to secure its position. The common bile duct was ligated close to the liver to prevent entry of the injected substance into the liver. Similarly the duct was ligated near its entry into the duodenum. The position of the tube into the pancreatic duct was confirmed by freely flowing bile through the tubing. […] Thirty minutes later Capsaicin 0.5 mg/kg (total volume 500 μl) or vehicle (1×PBS, 10% ETOH, 1% Tween) was injected to half of the AcPep or CoPep injected rats. Three rats were included in each treatment group (n=3 for number of experiments). The tubing was carefully removed and bile flow from the liver into the duodenum was re-established. The abdominal cavity was closed with sutures. Rats were sacrificed 2.5 hrs after the initial injection.
C-fos staining. Rats were anesthetized with sodium pentobarbital (50 mg/kg i.p.) and perfused with 200 mls PBS followed by 500 mls ice-cold freshly prepared 4% paraformaldehyde in PBS. Spinal cord (level T5-T13) was removed, post-fixed in 4% paraformaldehyde for 18 hrs at 4° C. and placed in PBS (pH 7.4) containing 30% sucrose for 24 hrs at 4° C. Frozen sections (40 μm) were cut on a cryostat and stored as floating sections in PBS at 4° C. Every third section was stained for c-fos with a rabbit polyclonal serum, 1:1000 dilution, (c-fos, Ab-5, Oncogene Research Products) utilizing manufacturer's protocol. Antibody staining was visualized using a biotinylated secondary antisera and Vectastain ABC peroxidase kit with DAB as substrate. Sections were mounted on Superfrost Plus slides (VWR Scientific, West Chester, Pa.) and dehydrated. The number of c-FOS immunoreactive (IR) neurons were counted in 10 randomly chosen sections per segment under brightfield illumination and then averaged.
(§1) Statistics. Release data are presented as the mean± standard error of the mean (SEM) of wells from three separate experiments. […] Intraductal injection studies were analyzed using a repeated measure ANOVA and individual means were compared using a Newman-Keuls multiple comparison test. […]

[2] = system: cultured adult rat thoracic DRG neurons; assay: CGRP release assay in cultured DRG neurons; type: cell-based; conditions: 10 min pretreatment with peptide 10 μM, mean of wells, three experiments
Procedure: Cell Culture. Primary cultures of rat DRG neurons were prepared from male adult Sprague Dawley rats (200-250 gm). Following enzymatic treatment and dissociation, neurons were spun through a percoll cushion (Hofbauer et al. 1998) and were plated at a density of 10,000-20,000 neurons/well of a 48 well tissue culture plate. Cultures were maintained in DME+10% FCS supplemented with penicillin/streptomycin, 150 μM uridine and 50 μM 5-fluoro-2-deoxyuridine (Nguyen et al. 1999). NGF (murine, recombinant, 2.5S; Promega, Madison, Wis.) was used at 50 ng/ml. Neurons were treated for five days before release experiments or Calcium-imaging studies were performed.
CGRP release assay. Immunoreactive calcitonin gene-related peptide (IR-CGRP) release from DRG cultures was performed as described by Hingtgen et al. (1995). Briefly, neuron cultures were washed with Release Buffer (RB) (25 mM Hepes, pH 7.4, 135 mM NaCl, 3.5 mM KCl, 2.5 mM CaCl2, 1 mM MgCl2, 3.3 mM Glucose, 0.1% BSA, 1 μM phosphoamidon), and were incubated for 10 min at 37° C. in RB plus 0.1% ethanol (Capsaicin vehicle) to measure basal CGRP release. Fresh RB containing the appropriate concentration of activating peptide (AcPep) or control peptide (CoPep) was added for an additional 10 minutes. Peptide treatment was followed by a 10 minute incubation with an appropriate dose of Capsaicin or KCl. IR-CGRP released by neurons was measured by ELISA. Activating peptide and control peptide were prepared by standard solid phase synthesis procedures by the UTMB Core Protein Facility.
CGRP Quantification. CGRP was quantified in a standard sandwich ELISA. In brief, 96-well “U” bottom microtiter ELISA plates (Dynex, Chantilly, Va.) were coated with affinity purified polyclonal rabbit antibody to rat CGRP (Peninsula Labs, Belmont, Calif.) at 3 μg/ml in 0.125M borate buffered saline (pH 8.1) (100 μl/well). The plates were incubated overnight at 37° C. The next day, the plates were washed three times with saline containing 0.05% Tween-20. Purified rat CGRP (Peninsula Labs) was used at a previously standardized concentration range of 25-1 ng/ml in a four-fold dilution to generate a standard curve. An equal volume of the sample was added in duplicate to a seventy-five μl/well of Tween-PBS (pH 7.1) and the plates were incubated for two hours on a shaker at room temperature. The plates were washed 3 times with Tween-PBS and 100 μl/well (0.2 mg/ml; 1:500 dilution) of in-house biotinylated, rabbit anti rat CGRP IgG (Peninsula Labs) was applied and incubated for two hours at room temperature. After three washes 150 μl of 1:1000 diluted streptavidine-horseradish peroxidase conjugate (Zymed, San Fransisco, Calif.) was added to each well and the plates were incubated for 90 min at room temperature. One-hundred-fifty μl/well of the substrate ortho-phenylene diamine dihydrochloride (Sigma Chemicals, St. Louis, Mo.) 0.4 mg/ml in citrate buffer (pH 4.9) was added after plates were washed three more times. Forty μl/100 ml of 30% H2O2 was added fresh to the citrate buffer just before adding to the wells to activate the coloring reaction. The reaction was stopped with 5N H2SO4 (50 μl/well) and the plates were read at 490 nm in an automated ELISA reader (Bio-Tek Instruments, Inc., Winooski, VE). The OD values were plotted against the CGRP standard curve and CGRP immunoreactivity was quantified using the appropriate formula and expressed as nanogram/ml.
as §1, with “experiments. To compare the effects of activating peptide and control peptide on subsequent evoked release, an overall test based on the analysis of variance was performed (ANOVA).” for “experiments.”, “test. Significance levels were set at p<0.05.” for “test.”

mouse Par2 = target: T1, mouse Par2 (Mus musculus, UniProt P55086); conditions: expressed in frog oocytes; cited from earlier work
T1 construct: host or cells: frog oocytes
T1 sequence (P55086 26-399): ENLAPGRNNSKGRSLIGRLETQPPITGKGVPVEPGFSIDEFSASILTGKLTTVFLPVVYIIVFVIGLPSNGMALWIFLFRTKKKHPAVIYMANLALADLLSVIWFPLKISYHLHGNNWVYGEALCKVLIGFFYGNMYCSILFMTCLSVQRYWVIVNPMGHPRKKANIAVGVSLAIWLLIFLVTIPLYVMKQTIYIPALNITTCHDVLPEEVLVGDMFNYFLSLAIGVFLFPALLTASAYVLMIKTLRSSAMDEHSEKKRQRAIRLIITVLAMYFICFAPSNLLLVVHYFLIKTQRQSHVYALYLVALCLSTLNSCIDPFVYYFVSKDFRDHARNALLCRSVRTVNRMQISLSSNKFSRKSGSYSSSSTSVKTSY

PAR-1 = target: T2, PAR-1 (Homo sapiens, UniProt P25116); conditions: Blackhart et al. 1996; cited from earlier work
T2 sequence (P25116 22-425): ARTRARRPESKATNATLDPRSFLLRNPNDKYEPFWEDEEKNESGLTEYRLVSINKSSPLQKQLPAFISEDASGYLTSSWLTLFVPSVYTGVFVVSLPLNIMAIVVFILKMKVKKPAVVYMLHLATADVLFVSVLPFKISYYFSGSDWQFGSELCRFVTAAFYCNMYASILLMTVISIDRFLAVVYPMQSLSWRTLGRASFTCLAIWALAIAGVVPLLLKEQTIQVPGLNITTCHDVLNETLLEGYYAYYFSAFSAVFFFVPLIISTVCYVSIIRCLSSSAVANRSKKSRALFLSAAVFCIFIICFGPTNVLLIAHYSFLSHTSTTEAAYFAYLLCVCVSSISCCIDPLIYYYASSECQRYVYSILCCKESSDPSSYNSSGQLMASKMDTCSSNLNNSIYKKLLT

PAR-2 [3] = target: T3, PAR-2 (Homo sapiens, UniProt P55085); conditions: Blackhart et al. 1996; cited from earlier work
T3 sequence (P55085 26-397): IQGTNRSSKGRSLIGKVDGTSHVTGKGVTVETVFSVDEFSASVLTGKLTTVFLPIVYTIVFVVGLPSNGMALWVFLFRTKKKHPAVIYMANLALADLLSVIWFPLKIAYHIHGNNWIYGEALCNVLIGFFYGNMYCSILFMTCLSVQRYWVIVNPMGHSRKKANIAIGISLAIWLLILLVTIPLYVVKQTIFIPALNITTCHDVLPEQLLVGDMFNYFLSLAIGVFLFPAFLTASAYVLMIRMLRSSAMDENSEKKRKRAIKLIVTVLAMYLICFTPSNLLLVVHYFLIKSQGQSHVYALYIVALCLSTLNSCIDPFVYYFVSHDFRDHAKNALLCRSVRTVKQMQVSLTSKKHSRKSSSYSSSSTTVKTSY

PAR-2 [4] = target: T4, PAR-2 (Rattus norvegicus, UniProt Q63645); assay: Intracellular Ca2+ response of primary neuronal cultures; type: cell-based; conditions: primary neuronal cultures of adult rat DRGs
T4 construct: assessing the response of primary neuronal cultures to trypsin and AcPep; endogenous in cells; host or cells: primary cultures of adult Sprague-Dawley rat DRG neurons
T4 sequence (Q63645 26-397): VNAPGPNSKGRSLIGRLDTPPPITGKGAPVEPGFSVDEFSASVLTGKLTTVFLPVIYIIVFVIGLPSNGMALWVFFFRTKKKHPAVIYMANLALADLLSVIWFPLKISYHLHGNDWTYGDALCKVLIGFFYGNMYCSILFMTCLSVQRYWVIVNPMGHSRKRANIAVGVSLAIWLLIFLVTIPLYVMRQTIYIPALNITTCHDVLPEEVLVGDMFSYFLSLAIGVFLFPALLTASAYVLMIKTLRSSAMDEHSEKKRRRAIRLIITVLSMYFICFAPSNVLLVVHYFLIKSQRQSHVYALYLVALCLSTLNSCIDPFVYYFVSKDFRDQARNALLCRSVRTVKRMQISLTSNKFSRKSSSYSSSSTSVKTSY
From the text: In the results which follow, it is shown that activated proteases can have direct effects on sensory neurons, mediated by specific receptors. PAR-1 and PAR-2 are present in rat DRGs (Young et al. 2000). The presence of one of these receptors, PAR-2, in sensory neurons is first confirmed by finding evidence of mRNA and protein expression in adult rat thoracic DRGs. The functional implications of PAR-2 expression are then examined by assessing the response of primary neuronal cultures to trypsin and AcPep. Both agonists increased intracellular Ca^2+ confirming previously reported findings that a functional PAR 2 receptor is present in adult rat DRGs (Steinhoff et al. 2000). Trypsin stimulates both PAR-1 and PAR-2 and therefore an increase in intracellular Ca^2+ can be caused by activation of the two different receptors. […] Therefore the increased intracellular Ca^2+ response to AcPep reflects specific PAR-2 mediated activation.
Cell Culture. Primary cultures of rat DRG neurons were prepared from male adult Sprague Dawley rats (200-250 gm). Following enzymatic treatment and dissociation, neurons were spun through a percoll cushion (Hofbauer et al. 1998) and were plated at a density of 10,000-20,000 neurons/well of a 48 well tissue culture plate. […]

[5] = target: T5, protease activated receptor-2 (PAR-2) of adult rat thoracic dorsal root ganglion neurons (rat, UniProt Q63645 37-397); assay: cell-based or functional assay
T5 sequence (looked up): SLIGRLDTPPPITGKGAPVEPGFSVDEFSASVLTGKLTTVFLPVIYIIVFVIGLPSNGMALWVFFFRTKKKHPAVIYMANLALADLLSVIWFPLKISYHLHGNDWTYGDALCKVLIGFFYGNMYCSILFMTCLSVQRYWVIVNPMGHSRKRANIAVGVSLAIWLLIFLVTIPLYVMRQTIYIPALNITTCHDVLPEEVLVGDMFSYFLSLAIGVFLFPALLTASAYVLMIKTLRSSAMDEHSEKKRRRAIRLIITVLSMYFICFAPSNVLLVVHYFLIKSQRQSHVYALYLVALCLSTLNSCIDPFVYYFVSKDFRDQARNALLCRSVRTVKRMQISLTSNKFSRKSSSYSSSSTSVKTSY

Molecule: RLGILS-amide (RLGILS-NH2) [CoPep]
Capsaicin-evoked c-FOS expression in segments T8-T10 [1]: as strong a stimulant as AcPep alone
CGRP release induced by Capsaicin (50 nM) ([2]; then Capsaicin 50 nM for 10 min in presence of peptide): 4.77 ng/mL
CGRP release induced by KCl (70 mM) ([2]; then KCl 70 mM for 10 min in presence of peptide): 1.8 ng/mL

Molecule: thrombin
concentration without receptor activation (mouse Par2): > 100 nM

Second part, led by results:

intracellular Ca2+ (PAR-2 [4]): increased
Molecule: trypsin: serine protease that stimulates both PAR-1 and PAR-2
activation of PAR-1 (PAR-1): stimulates
activation of PAR-2 (PAR-2 [3]): stimulates
receptor activation, in words (mouse Par2): could be activated with nanomolar concentrations

augmentation of Capsaicin-evoked CGRP release (multiple of the basal release), AcPep 10 µM [5]: ~2 fold
augmentation of KCl-evoked CGRP release (multiple of the basal release), AcPep 10 µM [5]: 1.5 fold
Molecule: SLIGRL [PAR-2 activating peptide (AcPep)]
